Values joined by “and” are separate entries in the source; they are usually repeats but may differ in a detail not shown here. Equal entries are not always repeated. “Also recorded” adds a separate entry of the source. Marks after values point to notes of the source that are not given here.
How the values were obtained:
U87MG.DK cells = assay: FACS binding to cell lines; format: cell-based, human
Description: (§1) Stained cells were analyzed with a FACS Calibur™ using Cell Quest™ software (Becton-Dickinson PharMingen). […] 1. Mouse IgG2a or IgG2b was used as an isotype control.

[1] = tested on: Ba/F3 cells expressing the wtEGFR; assay: EGF-induced proliferation (MTT assay); format: cell-based; conditions: antibody 10 μg/ml
Description: Cells growing in log phase were harvested and washed twice with PBS to remove residual IL-3. […] Proliferation was determined using the MTT assay (van de Loosdrecht et al. (1994) J. Immunol. Methods. 174, 311-320).

[2] = tested on: MDA-468 breast cancer cell line; assay: FACS binding to cell lines; format: cell-based, human
parental U87MG cells = assay: binding of iodinated antibody to cells; set-up: species or system human
[3] = tested on: glioblastomas not preselected for their EGFR status; assay: immunohistochemistry of 46 unselected glioblastomas; set-up: species or system human
Description: Immunohistochemical analysis was performed using 5 mm sections of fresh frozen tissue applied to histology slides and fixed for 10 minutes in cold acetone. Bound primary antibody was detected with biotinylated horse anti-mouse antibody followed by an avidin-biotin-complex reaction. Diaminobenzidine tetra hydrochloride (DAB) was used as chromogen. The extent of the immunohistochemical reactivity in tissues was estimated by light microscopy and graded according to the number of immunoreactive cells in 25% increments as follows: • Focal=less than 5% • +=5-25% • ++=25-50% • +++=50-75% • ++++=>75%

[4] = tested on: panel of 12 different malignancies; assay: immunohistochemistry of tumor panel; set-up: species or system human
Description: Immunohistochemical analysis was performed using […] sections of fresh frozen tissue applied to histology slides and fixed for 10 minutes in cold acetone. Bound primary antibody was detected with biotinylated horse anti-mouse antibody followed by an avidin-biotin-complex reaction. Diaminobenzidine tetra hydrochloride (DAB) was used as chromogen. The extent of the immunohistochemical reactivity in tissues was estimated by light microscopy and graded according to the number of immunoreactive cells in 25% increments as follows: • Focal=less than 5% • +=5-25% • ++=25-50% • +++=50-75% • ++++=>75%
The extent of de2-7 EGFR in other tumor types was examined using a panel of 12 different malignancies. […] This staining was strongly dependent on antibody concentration used and was considered nonspecific background reactivity.

[5] = tested on: U87MG.DK brain xenografts; assay: systemic treatment of intracranial xenografts; set-up: species or system nude mice; conditions: mouse, in vivo
Description: U87MG.ΔEGFR cells (1×10^5) or 5×10^5 LN-Z308.ΔEGFR, A1207.ΔEGFR, U87MG, U87MG.DK, and U87MG.wtEGFR cells in 5 μl of PBS were implanted into the right corpus stratum of nude mice brains as described previously (Mishima et al. (2000) A peptide derived from the non-receptor binding region of urokinase plasminogen activator inhibits glioblastoma growth and angiogenesis in vivo in combination with cisplatin. Proc. Natl. Acad. Sci. U.S.A. 97, 8484-8489).

wtEGFR on A431 cells = target: T1, wtEGFR on A431 cells (Homo sapiens, UniProt P00533); assay: Scatchard analysis on A431 cells; format: binding
T1 construct: A431 cells are human squamous carcinoma cells and express high levels of wtEGFR; host or cells: A431 human squamous (epidermoid) carcinoma cells
Description: All binding assays were performed in 1% HSA/PBS on 1-2×10^6 live U87MG.Δ2-7 or A431 cells for 90 min at 4° C. with gentle rotation. A set concentration of 10 ng/ml ^125I-labeled antibody was used in the presence of increasing concentrations of the appropriate unlabeled antibody. Non-specific binding was determined in the presence of 10,000-fold excess of unlabeled antibody. […] After the incubation was completed, cells were washed and counted for bound ^125I-labeled antibody using a COBRA II gamma counter (Packard Instrument Company, Meriden, CT, USA).

de2-7 EGFR and wtEGFR = target: T2, de2-7 EGFR and wtEGFR (Homo sapiens, UniProt P00533, DELINS30-297G); assay: immunoprecipitation from 35S-labeled cells; format: binding
T2 construct: expressed in transfected cells; host or cells: NR6ΔEGFR and U87MG.ΔEGFR/U87MG.Δ2-7 (transfected ΔEGFR); U87MG.wtEGFR (transfected wtEGFR); U87MG and A431 (endogenous wtEGFR)
Description: Briefly, cells were labeled for 16 h with […] of Tran ^35S-Label (ICN Biomedicals, Irvine, CA) in DMEM without methionine/cysteine supplemented with 5% dialyzed FCS. After washing with PBS, cells were placed in lysis buffer (1% Triton X-100, 30 mM HEPES, 150 mM NaCl, 500 μM 4-(2-aminoethyl) benzenesulfonylfluoride (AEBSF), 150 nM aprotinin, 1 μM E-64 protease inhibitor, 0.5 mM EDTA, and 1 μM leupeptin, pH 7.4) for 1 h at 4° C. Lysates were clarified by centrifugation for 10 min at 12,000 g and then incubated with 5 μg of appropriate antibody for 30 min at 4° C. before the addition of Protein A-Sepharose. Immunoprecipitates were washed three times with lysis buffer, mixed with SDS sample buffer, separated by gel electrophoresis using a 4-20% Tris/glycine gel that was then dried, and exposed to X-ray film.

DU145 xenografts = assay: established xenograft model; format: in vivo, nude mice; conditions: day 67; 1 mg i.p.
Excerpt: Xenografts were allowed to establish for 18 days before therapy commenced (3 times a week for 3 weeks on days indicated). At this time the average tumor volume was 90 mm^3 (FIG. 68D).

DU145 cells = assay: FACS binding to cell lines; format: cell-based, human
Excerpt: Clearly, mAb806 and mAb175 can recognize only a small proportion of the EGFR on cells in the presence of an autocrine stimulation loop.

U87MG.wtEGFR cells = assay: FACS binding to cell lines; format: cell-based, human
Description: Briefly, cells were labelled with the relevant antibody (10 μg/ml) followed by fluorescein-conjugated goat anti-mouse IgG (1:100 dilution; Calbiochem San Diego, CA, USA; Becton-Dickinson PharMingen, San Diego, CA, US) as described previously (Nishikawa et al., 1994). FACS data was obtained on a Coulter Epics Elite ESP by observing a minimum of 5,000 events and analyzed using EXPO (version 2) for Windows.
as §1
Cell lines and antibodies were prepared as described in Example 1. […] Cells (1 3 10 6) were incubated with 5 μg/ml of the appropriate antibody or an isotype-matched negative control in PBS containing 1% HSA for 30 min at 4° C. After three washes with PBS/1% HSA, cells were incubated an additional 30 min at 4° C. with FTTC-coupled goat anti-mouse antibody (1:100 dilution; Calbiochem, San Diego, CA). After three subsequent washes, cells were analyzed on an Epics Elite ESP (Beckman Coulter, Hialeah, FL) by observing a minimum of 20,000 events and analyzed using EXPO (version 2) for Windows.

B1: mAb806: murine monoclonal antibody recognizing de2-7 EGFR and amplified EGFR; VH SEQ ID NO:2, VL SEQ ID NO:4 (antibody, listed as Mus musculus, V domains shown)
VH: MRVLILLWLFTAFPGVLSDVQLQESGPSLVKPSQSLSLTCTVTGYSITSDFAWNWIRQFPGNKLEWMGYISYSGNTRYNPSLKSRISITRDTSKNQFFLQLNSVTIEDTATYYCVTAGRGFPYWGQGTLVTVSA
VL: MVSTAQFLAFLLLWFPGARCDILMTQSPSSMSVSLGDTVSITCHSSQDINSNIGWLQQRPGKSFKGLIYHGTNLDDEVPSRFSGSGSGADYSLTISSLESEDFADYYCVQYAQFPWTFGGGTKLEIKR
With B1 as the molecule, how does the FACS staining (U87MG.DK cells) read?
Its FACS staining is “reacted intensely”.

What about the “effect on EGF-induced proliferation” value [1] of the same molecule?
The value was “no effect”.

And the FACS staining [2]?
Its FACS staining is “clearly stained both cell lines but at a lower level”.

What about the “binding of iodinated antibody” value (parental U87MG cells) of the same molecule?
The value was “Neither ^125I-radiolabeled mAb806 or the DH8.3 antibody bound; also recorded: did not bind”.

What about the positive cases ([3]; 46 glioblastomas) of the same molecule?
The positive cases was 58.7%.

And the positive cases/cases ([3]; 46 glioblastomas)?
The positive cases/cases was 27/46.

And the immunohistochemical staining ([3]; case with EGFR Amp. N, A2)?
Its immunohistochemical staining is “++++ (++++=>75%)”.

And the immunohistochemical staining ([3]; cases with EGFR Amp. A, WT)?
The immunohistochemical staining was “++++ (++++=>75%)”.

What about the immunohistochemical staining ([3]; cases with EGFR Amp. N, mutation nd) of the same molecule?
The immunohistochemical staining was “neg”.

And the immunohistochemical staining ([3]; cases with EGFR Amp. nd, mutation nd)?
Its immunohistochemical staining is “neg”.

What about the “cases with homogeneous immunoreactivity” value ([3]; mAb806: in more than 50% of the tumor) of the same molecule?
The value was 22.

What about the positive tumors/tumors tested ([4]; Colonic carcinoma) of the same molecule?
The positive tumors/tumors tested was 0/10.

What about the positive tumors/tumors tested ([4]; Head + neck cancer (sqcc)) of the same molecule?
The positive tumors/tumors tested was 7/11.

And the positive tumors/tumors tested ([4]; Leiomyosarcoma)?
The positive tumors/tumors tested was 0/5.

What about the positive tumors/tumors tested ([4]; Liposarcoma) of the same molecule?
Its positive tumors/tumors tested is 0/5*.

And the positive tumors/tumors tested ([4]; Lung (sqcc, adeno, neuroend))?
Its positive tumors/tumors tested is 6/12.

What about the positive tumors/tumors tested ([4]; Malignant melanoma metastases) of the same molecule?
Its positive tumors/tumors tested is 0/10.

And the positive tumors/tumors tested ([4]; Mammary gland)?
The positive tumors/tumors tested was 1/10.

And the “staining grades of positive tumors” value ([4]; Mammary gland)?
Its value is “(foc)”.

And the positive tumors/tumors tested ([4]; Mfh Malignant fibrous histiocytoma)?
The positive tumors/tumors tested was 0/5*.

What about the positive tumors/tumors tested ([4]; Ovary (serous-papillary)) of the same molecule?
The positive tumors/tumors tested was 0/5.

And the positive tumors/tumors tested ([4]; Seminoma)?
Its positive tumors/tumors tested is 0/10.

And the positive tumors/tumors tested ([4]; Synovial sarcoma)?
Its positive tumors/tumors tested is 0/5*.

What about the positive tumors/tumors tested ([4]; Urinary bladder (tcc, sqcc, adeno)) of the same molecule?
Its positive tumors/tumors tested is 3/10*.

What about the “tumors with positive staining” value ([4]; head and neck tumors) of the same molecule?
The value was 64%.

What about the “tumors with positive staining” value ([4]; lung carcinomas) of the same molecule?
Its value is 50%.

What about the “tumors with positive staining” value ([4]; urinary tumors) of the same molecule?
The value was 30%.

What about the effect on survival [5] of the same molecule?
The effect on survival was “did not extend survival”.

And the “receptors (binding sites) per cell” value (wtEGFR on A431 cells)?
Its value is 2.4×10^5 receptors per cell and 2.3×10^5 receptors per cell.

And the affinity (wtEGFR on A431 cells; average of three experiments)?
The affinity was 9.5e+07 M⁻¹.

What about the “immunoprecipitated EGFR bands” value (de2-7 EGFR and wtEGFR) of the same molecule?
Its value is “immunoprecipitated the two de2-7 EGFR bands, the wtEGFR was completely absent; also recorded: immunoprecipitated a single band corresponding to the wtEGFR from both U87MG.wtEGFR and A431 cells”.

What about the mean tumor volume (DU145 xenografts) of the same molecule?
The mean tumor volume was 605 mm^3.

What about the FACS binding (DU145 cells) of the same molecule?
Its FACS binding is “bind to DU145 cells”.

And the FACS staining (U87MG.wtEGFR cells)?
Its FACS staining is “stained; also recorded: reacted weakly”.

Source: patent publication US20240117073A1, “METHODS OF TREATING NEOPLASTIC ASTROCYTOMA” (Ludwig Institute for Cancer Research Ltd., priority 2009, published 2024)
